In experiment [1] the target is T1, mouse SEZ6 on Neuro2a cells (mouse, UniProt Q7TSK2 20-991).
T1 construct: endogenous on Neuro2a cells; also called murine SEZ6; mSEZ6
In words: flow cytometry, Neuro2a cells, 5 ug/mL antibody. For orientation: Flow cytometry measures light scatter and fluorescence of single cells or particles in a stream.
Method: (§1) Briefly 1×10⁵ cells per well of Neuro2a, RIN-5mF, or yeast displaying cynomolgus SEZ6 cells were incubated for 30 minutes with 50 μL PBS (2% FCS) buffer with 5 μg/mL antibody. […] After incubating for 15 minutes cells were washed twice with the PBS buffer and re-suspended in the same with DAPI for flow cytometry analysis of Neuro2a and Rin-m5F or buffer without DAPI for flow cytometric analysis of yeast cells with cSEZ6.

For another experiment, the target named is T2, human SEZ6L ECD-His (human, UniProt Q9BYH1 29-955).
T2 construct: whole entry named
T2 sequence: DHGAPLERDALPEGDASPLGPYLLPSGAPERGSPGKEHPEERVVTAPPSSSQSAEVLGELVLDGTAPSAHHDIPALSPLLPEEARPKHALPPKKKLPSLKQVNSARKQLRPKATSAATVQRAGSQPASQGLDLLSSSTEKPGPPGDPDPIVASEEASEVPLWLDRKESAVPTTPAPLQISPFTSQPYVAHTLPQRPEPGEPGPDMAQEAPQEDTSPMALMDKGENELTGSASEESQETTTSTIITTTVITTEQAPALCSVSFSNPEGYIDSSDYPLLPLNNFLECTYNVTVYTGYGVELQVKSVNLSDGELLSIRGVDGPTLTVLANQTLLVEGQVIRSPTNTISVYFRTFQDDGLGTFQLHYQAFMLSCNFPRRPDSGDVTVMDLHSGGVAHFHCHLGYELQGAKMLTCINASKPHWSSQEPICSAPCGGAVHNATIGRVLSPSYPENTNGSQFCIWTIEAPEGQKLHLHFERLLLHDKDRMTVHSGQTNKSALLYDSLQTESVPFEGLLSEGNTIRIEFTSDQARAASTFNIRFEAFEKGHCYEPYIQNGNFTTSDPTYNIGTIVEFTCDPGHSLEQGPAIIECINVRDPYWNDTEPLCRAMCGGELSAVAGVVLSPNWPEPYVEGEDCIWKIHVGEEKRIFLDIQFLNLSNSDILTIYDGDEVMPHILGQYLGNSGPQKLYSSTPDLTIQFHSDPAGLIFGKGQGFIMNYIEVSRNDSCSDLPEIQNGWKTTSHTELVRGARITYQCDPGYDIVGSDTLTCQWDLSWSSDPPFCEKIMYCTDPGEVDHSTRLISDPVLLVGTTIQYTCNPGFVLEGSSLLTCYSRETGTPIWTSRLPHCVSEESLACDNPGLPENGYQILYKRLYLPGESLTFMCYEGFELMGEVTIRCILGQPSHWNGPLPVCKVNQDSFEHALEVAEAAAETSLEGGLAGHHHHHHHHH
In words: ELISA on plates coated with SEZ6L protein. In general terms: An ELISA detects its analyte on a solid surface through an enzyme-linked reagent.

In experiment [2] the target is T3, human SEZ6L2 ECD-His (human, UniProt Q6UXD5 28-843).
T3 construct: whole entry named
In words: ELISA on plates coated with SEZ6L2 protein.
Method: (§2) To determine cross reactivity to family member proteins, SEZ6L and SEZ6L2, an ELISA-based assay was used. Plates were coated with SEZ6, SEZ6L, or SEZ6L2 proteins at 0.2 μg/mL in PBS overnight. After washing with PBS containing 0.05% (v/v) Tween 20 (PB ST), the wells were blocked with 2% (w/v) BSA in PBS (PB SA), 100 μL/well for 1 hour at room temperature. Antibody was then added at 1 μg/mL in 100 μL PBSA for 1 hour at room temperature. After washing with PBST, 100 μL/well HRP-labeled goat anti-mouse IgG diluted 1:2,000 in PBSA for 1 hour at room temperature. […] After developing, an equal volume of 2M H₂SO₄ was added to stop substrate development and analyzed by spectrophotometer at OD 450.

Experiment [3] has as its target T4, extracellular domain of cynomolgus SEZ6 on yeast (cynomolgus, UniProt Q53EL9 23-925 (human entry)).
T4 construct: yeast display; the whole entry is named; also called cSEZ6; cynomolgus SEZ6 ECD
T4 chain: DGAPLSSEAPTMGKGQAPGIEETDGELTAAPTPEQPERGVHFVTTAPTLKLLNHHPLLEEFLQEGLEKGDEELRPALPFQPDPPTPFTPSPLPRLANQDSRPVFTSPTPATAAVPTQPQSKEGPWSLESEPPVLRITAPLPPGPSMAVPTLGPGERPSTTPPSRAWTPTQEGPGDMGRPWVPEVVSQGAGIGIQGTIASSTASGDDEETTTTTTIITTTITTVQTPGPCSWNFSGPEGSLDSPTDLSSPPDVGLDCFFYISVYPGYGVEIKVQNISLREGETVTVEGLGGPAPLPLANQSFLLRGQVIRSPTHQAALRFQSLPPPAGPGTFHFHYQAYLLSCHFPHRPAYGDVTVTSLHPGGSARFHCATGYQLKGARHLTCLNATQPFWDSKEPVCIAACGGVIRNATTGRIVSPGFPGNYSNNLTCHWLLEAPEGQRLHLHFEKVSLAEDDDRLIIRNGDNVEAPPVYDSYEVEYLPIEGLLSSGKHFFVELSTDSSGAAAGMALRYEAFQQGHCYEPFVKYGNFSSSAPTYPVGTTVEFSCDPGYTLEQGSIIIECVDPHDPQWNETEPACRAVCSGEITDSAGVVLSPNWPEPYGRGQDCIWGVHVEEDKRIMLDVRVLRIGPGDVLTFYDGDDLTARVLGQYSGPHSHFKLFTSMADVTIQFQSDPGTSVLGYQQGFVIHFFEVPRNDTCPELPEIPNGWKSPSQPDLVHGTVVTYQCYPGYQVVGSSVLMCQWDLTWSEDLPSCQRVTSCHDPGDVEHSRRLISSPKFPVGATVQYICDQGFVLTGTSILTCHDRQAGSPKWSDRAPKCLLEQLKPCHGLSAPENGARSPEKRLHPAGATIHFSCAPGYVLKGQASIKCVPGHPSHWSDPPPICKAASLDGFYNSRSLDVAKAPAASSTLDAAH
In words: flow cytometry, yeast displaying cynomolgus SEZ6 ECD, 5 ug/mL antibody.
Method: as §1

For experiment [4], the target named is T5, rat SEZ6 on RIN-m5F cells (rat, UniProt Q7TSK2 20-991 (mouse entry)).
T5 construct: endogenous on RIN-m5F cells; also called rSEZ6
T5 chain: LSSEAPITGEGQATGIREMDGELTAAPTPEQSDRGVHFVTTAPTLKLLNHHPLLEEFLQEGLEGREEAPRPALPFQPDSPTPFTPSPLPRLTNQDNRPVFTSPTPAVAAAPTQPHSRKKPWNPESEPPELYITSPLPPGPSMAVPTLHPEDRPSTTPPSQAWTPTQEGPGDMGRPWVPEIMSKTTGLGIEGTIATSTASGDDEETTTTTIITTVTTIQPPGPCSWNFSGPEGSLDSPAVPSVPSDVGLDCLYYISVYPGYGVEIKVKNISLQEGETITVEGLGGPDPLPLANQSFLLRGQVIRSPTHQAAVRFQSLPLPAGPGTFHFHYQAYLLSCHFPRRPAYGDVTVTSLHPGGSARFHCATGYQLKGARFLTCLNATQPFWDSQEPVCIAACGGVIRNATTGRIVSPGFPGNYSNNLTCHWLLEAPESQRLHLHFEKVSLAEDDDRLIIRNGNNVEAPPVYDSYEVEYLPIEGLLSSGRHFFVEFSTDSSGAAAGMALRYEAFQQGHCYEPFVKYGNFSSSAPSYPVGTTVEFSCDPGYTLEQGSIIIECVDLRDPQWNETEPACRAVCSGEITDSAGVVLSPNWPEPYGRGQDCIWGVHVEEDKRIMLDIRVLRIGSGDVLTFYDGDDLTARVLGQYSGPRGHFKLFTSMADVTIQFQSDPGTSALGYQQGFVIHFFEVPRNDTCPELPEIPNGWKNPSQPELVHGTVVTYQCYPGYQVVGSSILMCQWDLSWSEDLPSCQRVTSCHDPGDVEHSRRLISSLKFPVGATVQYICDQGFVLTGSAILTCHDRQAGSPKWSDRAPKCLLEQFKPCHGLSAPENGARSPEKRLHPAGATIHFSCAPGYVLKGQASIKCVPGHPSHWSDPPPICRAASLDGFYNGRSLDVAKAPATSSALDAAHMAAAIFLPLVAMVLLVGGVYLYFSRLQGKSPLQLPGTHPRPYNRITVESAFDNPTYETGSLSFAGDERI
In words: flow cytometry on RIN-m5F cells expressing rat SEZ6, verified by BLI or SPR on rat SEZ6-His.
Method: as §1
To verify the cross reactivity data above for rat SEZ6 and to determine the affinity and kinetic constants kₒₙ and koff of the selected effectors, either bio-layer interferometry analysis on a ForteBio RED (ForteBio, Inc.) or surface plasmon resonance on a Biacore 2000 (GE Healthcare) were conducted.

A further experiment deals with T6, hSEZ6-ECD-His (human, UniProt Q53EL9 20-925).
T6 construct: the whole entry is named; also called recombinant SEZ6-His; human recombinant SEZ6-His
In words: bio-layer interferometry (ForteBio RED) or surface plasmon resonance (Biacore 2000) on human SEZ6-His; the table does not say which; column Hu Affinity (Kd, nM).

Experiment [5] addresses T5, rat SEZ6 on RIN-m5F cells. In words: flow cytometry, RIN-m5F cells, 5 ug/mL antibody.
Method: as §1
Experiment [6] deals with T3, human SEZ6L2 ECD-His. In words: mark of Table 5 for antibodies that bind SEZ6L2.
The target of a further experiment is T7, rSEZ6-ECD-His (rat, UniProt Q7TSK2 20-922 (mouse entry)).
T7 construct: the whole entry is named; also called rat recombinant SEZ6-His; rat SEZ6 ECD
T7 chain: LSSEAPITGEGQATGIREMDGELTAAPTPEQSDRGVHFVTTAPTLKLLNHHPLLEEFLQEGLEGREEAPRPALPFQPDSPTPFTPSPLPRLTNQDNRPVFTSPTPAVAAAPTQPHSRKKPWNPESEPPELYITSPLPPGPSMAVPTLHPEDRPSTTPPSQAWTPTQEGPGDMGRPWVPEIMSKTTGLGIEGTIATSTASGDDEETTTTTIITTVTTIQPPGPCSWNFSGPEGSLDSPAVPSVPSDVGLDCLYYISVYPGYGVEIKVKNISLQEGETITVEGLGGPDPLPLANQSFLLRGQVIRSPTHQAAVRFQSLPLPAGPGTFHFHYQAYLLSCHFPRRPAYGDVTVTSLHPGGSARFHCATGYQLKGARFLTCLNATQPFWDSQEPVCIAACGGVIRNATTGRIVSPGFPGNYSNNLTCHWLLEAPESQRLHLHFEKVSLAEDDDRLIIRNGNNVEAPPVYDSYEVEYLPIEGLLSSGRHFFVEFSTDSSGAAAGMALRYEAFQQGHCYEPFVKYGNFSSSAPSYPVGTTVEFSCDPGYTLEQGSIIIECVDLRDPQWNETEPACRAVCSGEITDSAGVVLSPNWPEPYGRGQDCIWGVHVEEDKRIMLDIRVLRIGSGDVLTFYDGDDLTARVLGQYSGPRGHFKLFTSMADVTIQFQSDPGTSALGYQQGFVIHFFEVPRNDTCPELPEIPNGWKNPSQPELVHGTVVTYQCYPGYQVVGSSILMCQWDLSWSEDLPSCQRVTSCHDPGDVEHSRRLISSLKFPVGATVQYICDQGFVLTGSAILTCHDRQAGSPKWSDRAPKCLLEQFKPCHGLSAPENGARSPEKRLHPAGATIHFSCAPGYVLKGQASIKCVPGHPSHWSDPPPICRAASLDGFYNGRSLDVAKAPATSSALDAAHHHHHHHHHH
In words: bio-layer interferometry (ForteBio RED) or surface plasmon resonance (Biacore 2000) on rat SEZ6-His; the table does not say which; column Rat XR (Kd, nM). For orientation: Biolayer interferometry detects binding as a change in optical thickness at a sensor tip.

Experiment [7] deals with T8, SEZ6 N3 (aa 170-335) on yeast (human, UniProt Q53EL9 189-354).
T8 construct: yeast display
T8 sequence: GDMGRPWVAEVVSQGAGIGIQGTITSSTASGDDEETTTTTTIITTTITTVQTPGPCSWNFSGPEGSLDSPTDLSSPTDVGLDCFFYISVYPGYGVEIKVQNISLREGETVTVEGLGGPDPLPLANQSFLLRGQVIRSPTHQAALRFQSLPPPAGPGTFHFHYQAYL
In words: yeast display, flow cytometry.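 Further: antibody binding to individual SEZ6 domains displayed on yeast, measured by flow cytometry, antibody at 50 nM purified or hybridoma supernatant diluted 1:2, 90 min on ice.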
Method: Individual domains of SEZ6 were expressed on the surface of yeast and binding by each SEZ6 antibody was determined through flow cytometry.
To test for binding to a particular construct, 200,000 induced yeast cells expressing the desired construct were washed twice in PBS+1 mg/mL BSA (PBSA), and incubated in 50 of PBSA with chicken anti c-myc (Life Technologies) at 0.1 μg/mL and either 50 nM purified antibody or 1:2 dilution of unpurified supernatant from hybridomas cultured for 7 days. Cells were incubated for 90 minutes on ice and then washed twice in PBSA. […] After twenty minutes' incubation on ice, cells were washed twice with PBSA and analyzed on a FACS Canto II.

One may read the Kd as the constant that tells how readily two partners part at equilibrium. Low readings indicate higher affinity, high ones lower affinity.

T3 sequence (Q6UXD5 other isoform, or with tags, fused parts or gaps): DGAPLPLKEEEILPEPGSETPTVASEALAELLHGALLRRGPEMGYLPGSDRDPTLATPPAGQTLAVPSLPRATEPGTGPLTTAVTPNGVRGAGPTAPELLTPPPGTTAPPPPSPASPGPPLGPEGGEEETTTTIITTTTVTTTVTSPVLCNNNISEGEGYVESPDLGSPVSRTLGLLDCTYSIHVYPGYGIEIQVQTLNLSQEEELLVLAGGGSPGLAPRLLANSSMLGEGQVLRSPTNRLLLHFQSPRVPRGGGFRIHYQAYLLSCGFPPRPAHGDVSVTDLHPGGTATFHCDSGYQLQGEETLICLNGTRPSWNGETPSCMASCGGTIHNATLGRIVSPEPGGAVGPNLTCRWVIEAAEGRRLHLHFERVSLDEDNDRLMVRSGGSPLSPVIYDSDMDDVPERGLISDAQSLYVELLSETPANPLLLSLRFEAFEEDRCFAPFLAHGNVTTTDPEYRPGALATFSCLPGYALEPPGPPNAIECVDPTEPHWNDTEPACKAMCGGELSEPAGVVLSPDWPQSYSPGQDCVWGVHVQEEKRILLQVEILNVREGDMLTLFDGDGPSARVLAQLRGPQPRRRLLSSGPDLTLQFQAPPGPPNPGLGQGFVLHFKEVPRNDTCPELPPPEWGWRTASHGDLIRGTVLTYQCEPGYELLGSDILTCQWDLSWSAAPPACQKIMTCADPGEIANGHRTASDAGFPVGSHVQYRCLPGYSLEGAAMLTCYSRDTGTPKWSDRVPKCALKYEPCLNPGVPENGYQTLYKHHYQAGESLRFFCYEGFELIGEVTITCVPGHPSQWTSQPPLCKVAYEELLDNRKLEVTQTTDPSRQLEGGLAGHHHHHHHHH
From the text for hSEZ6-ECD-His: (§3) Various methods were used to analyze the binding and immunochemical characteristics of selected SEZ6 modulators generated as set forth above.
Method for human SEZ6L ECD-His: as §2
From the text for rSEZ6-ECD-His: as §3

B1: SC17.24 (antibody, V domains shown)
VH: QVQLQQSDAELVKPGASVKISCKVSGYTFTDHTIHWMKQRPEQGLEWIGYIYPRDGSTKYNEEFKGKATLTADKSSSTAYMQLNSLTSEDSAVYFCARSYSNYFDYWGQGTTLTVSS
VL: DIVMSQSPSSLAVSVGEKVTMSCKSSQSLLYSSNQKSYLAWYQQKPGQSPKLLIYWASTRESGVPDRFTGSGSGTDFTLTISSVQAEDLAVYYCKQSYNLRTFGGGTKLEIK
notes: murine mAb
Take B1: the binding result is “binds” in experiment [1]; “no binding (tested: 1 µg/mL)” with human SEZ6L ECD-His; “no binding (tested: 1 µg/mL)” in the experiment with human SEZ6L2 ECD-His [2]; “binds” in experiment [3]; “no binding (tested: 5 µg/mL)” in experiment [4]. Besides, in the experiment with hSEZ6-ECD-His, the Kd was 5.1 nM.

B2: SC17.19 (antibody, V domains shown)
VH: DVQLQESGPGLVKPSQSLSVTCTVTGYSITSSYTWNWIRQFPGNKLEWMGYIHYSGSTNYNPSLRSRISITRDTSKNQFFLQLNSVTTEDTATYYCARSRYYYDAYGFAYWGQGTLVTVSA
VL: DIVLTQSPASLAVSLGQRAAISCKPSQSVDYDGDSYMNWYQQKPGQPPKLLIYAASNLESGIPARFSGSGSGTDFTLNIHPVEEEDAATYYCHQINDDPWTFGGGTKLK
notes: murine mAb
In the case of B2, the binding result is recorded as “binds” in [1], “binds” in experiment [5], “binds” with human SEZ6L2 ECD-His [6] and “no binding (tested: 1 µg/mL)” with human SEZ6L ECD-His. This molecule displayed a dissociation constant (Kd) in the experiment with hSEZ6-ECD-His of 5.3 nM.

B3: SC17.6 (antibody, V domains shown)
VH: EVQLQQSGPELMKPGASVKMSCKASGYTFTDYNMYWVKQNQGKSLEWIGEINPNNGGTAYNQKFRGKATLTVDKSSSTAYMELRSLTSEDSAVYYCARYDKGFDYWGQGTTLTVSS
VL: DIQMTQSPASLSVSVGETVTITCRASANINSNLVWYQQKQGKSPQLLVYAATNLADGVPSRFSGSGSGTQYSLKINSLQSEDFGNYYCQHFWGTPRTFGGGTKLEIK
notes: murine mAb; also called SC17.16 (duplicate)
B3: the binding result in experiment [1] was “binds”; in experiment [5], “binds”; with human SEZ6L2 ECD-His [6], “binds”; with human SEZ6L ECD-His it was “no binding (tested: 1 µg/mL)”. In addition, the Kd with rSEZ6-ECD-His and with hSEZ6-ECD-His was less than 1 nM each time.

B4: SC17.85 (antibody, V domains shown)
VH: EVQLVESGGDLVKPGGSLKLSCAASGFTFSNYGMSWVRQTPDKRLEWVATISTGGTYTYYPDSVKGRFTISRDNAKNTLYLQMSSLKSEDTAMYYCVGQSYSDYVSFAYWGQGTQVTVSA
VL: DIVMTQAAFSNPVTLGTSASISCRSSKSLLHSNGITYLYWYLQKPGQSPQLLIYQMSNLASGVPERFSSSGSGSDFTLRISRVEAEDVGVYYCAQNLEHPTFGGGTKLEIK
notes: murine mAb
In the case of B4, the binding result in experiment [7] is reported as “binds”.
